Patent US20250304643A1 (BAINAN BIOTECH, published 2025)
Where two headings read alike, the source gives them in different places. *1 amine or outer side, *2 acyl side, *3 side chain or, on linkers, in order; H or OH if unused. Where no end group is shown, it is not given here. Side-chain parts run from the residue outwards. [ ]: non-standard residue; d: D form. The star is where a group is joined. C18 diacid = O=C(O)CCCCCCCCCCCCCCCCC(=O)*; C16 diacid = O=C(O)CCCCCCCCCCCCCCC(=O)*; γGlu = O=C(O)[C@H](CCC(=O)[*:2])N[*:1]; Palmitoyl = CCCCCCCCCCCCCCCC(=O)*; Decanoyl = CCCCCCCCCC(=O)*; AEEA = NCCOCCOCC(=O)O; Aib = CC(C)(N)C(=O)O

How the values were obtained:
Assay in all cases: cell-based or functional assay
[1] = target: T1, human GIPR (glucose-dependent insulinotropic polypeptide receptor) (human, UniProt P48546 22-466)
T1 sequence (looked up): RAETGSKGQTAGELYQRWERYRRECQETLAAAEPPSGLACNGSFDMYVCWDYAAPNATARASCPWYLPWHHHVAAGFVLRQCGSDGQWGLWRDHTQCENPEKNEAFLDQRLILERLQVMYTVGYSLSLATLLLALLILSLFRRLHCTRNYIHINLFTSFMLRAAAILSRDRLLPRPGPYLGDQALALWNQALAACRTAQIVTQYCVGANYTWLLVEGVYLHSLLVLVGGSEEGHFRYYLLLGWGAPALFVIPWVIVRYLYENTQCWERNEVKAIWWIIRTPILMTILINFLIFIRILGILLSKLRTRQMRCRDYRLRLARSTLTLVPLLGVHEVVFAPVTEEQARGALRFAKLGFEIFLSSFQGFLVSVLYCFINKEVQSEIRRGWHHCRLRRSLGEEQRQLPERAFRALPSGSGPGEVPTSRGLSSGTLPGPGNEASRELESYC

[2] = target: T2, human GLP-2R (glucagon-like peptide-2 receptor) (human, UniProt O95838 1-553)
T2 sequence (looked up): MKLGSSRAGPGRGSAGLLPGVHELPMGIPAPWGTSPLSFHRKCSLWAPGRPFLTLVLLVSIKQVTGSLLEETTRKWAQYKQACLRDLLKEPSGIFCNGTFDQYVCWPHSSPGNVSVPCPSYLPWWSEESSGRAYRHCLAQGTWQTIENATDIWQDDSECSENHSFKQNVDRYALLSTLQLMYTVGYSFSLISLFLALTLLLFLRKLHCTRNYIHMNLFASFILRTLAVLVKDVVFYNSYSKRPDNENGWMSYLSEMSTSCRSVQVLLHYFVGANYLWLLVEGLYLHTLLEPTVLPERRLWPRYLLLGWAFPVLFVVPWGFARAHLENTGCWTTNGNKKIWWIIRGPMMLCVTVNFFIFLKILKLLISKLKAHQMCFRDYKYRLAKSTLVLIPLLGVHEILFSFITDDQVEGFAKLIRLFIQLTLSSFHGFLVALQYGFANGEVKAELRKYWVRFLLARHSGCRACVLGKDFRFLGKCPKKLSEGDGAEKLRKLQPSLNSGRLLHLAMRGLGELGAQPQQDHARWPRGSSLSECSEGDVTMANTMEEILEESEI

[3] = target: human GLP-1R (GLP-1 receptor) (human, UniProt P43220 24-463)
[4] = target: T1, human GIPR (glucose-dependent …); remark: listed apart in the source
[5] = target: T2, human GLP-2R (glucagon-like peptide-2 …); remark: listed apart in the source
rat GIPR = target: T3, rat GIPR (rat, UniProt P43219 19-455)
T3 sequence (looked up): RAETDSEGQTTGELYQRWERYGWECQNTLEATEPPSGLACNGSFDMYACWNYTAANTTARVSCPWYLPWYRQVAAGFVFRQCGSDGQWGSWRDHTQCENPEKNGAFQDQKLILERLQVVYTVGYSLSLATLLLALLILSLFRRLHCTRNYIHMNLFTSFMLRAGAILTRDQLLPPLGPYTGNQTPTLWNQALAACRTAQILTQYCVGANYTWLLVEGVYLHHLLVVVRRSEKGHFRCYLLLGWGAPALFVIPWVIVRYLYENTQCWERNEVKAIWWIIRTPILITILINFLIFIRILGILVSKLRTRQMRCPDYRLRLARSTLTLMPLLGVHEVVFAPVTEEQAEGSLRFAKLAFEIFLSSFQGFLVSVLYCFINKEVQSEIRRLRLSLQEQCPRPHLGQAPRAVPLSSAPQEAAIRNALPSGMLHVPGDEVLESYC

macaque GIPR = macaque GIPR (macaque)
macaque GLP-2R = macaque GLP-2R (macaque)

HGEGSFGSDMSIALDKLAARDFVNWLLQTKITD (also: C14 fatty acid at C-terminus, attachment not given here) [Compound no. 66]
cAMP assay: Efficacy GIPR [1]: 97%

HADGTFISDYSTILDK([AEEA-AEEA-γGlu-C18 diacid])LAARDFINWLIQTKGKK [Compound no. 64]
cAMP assay: Efficacy GLP-2R [2]: 75%
cAMP assay: Efficacy GLP-1R [3]: 85%

Palmitoyl-HADGTFISDYSTILDNLAARDFINWLIETKITKNDWKHNITQ [Compound no. 51]
cAMP assay: EC50 (nM) GIPR [4]: 0.398 nM
cAMP assay: Efficacy GIPR [4]: 104%
cAMP assay: EC50 (nM) GLP-2R [5]: 12.6 nM
cAMP assay: Efficacy GLP-2R [5]: 66%
cAMP assay: logEC50 GLP-2R [5]: 7.9

B1: Compound no. 25 (peptide)
peptide: H[Aib]DGK([γGlu-C16 diacid])FISDYST[Aib]LDNLAARDFINWLIQTKITK-OH
modifications: N-terminus assumed
SMILES: CC[C@H](C)[C@H](NC(=O)[C@H](Cc1ccccc1)NC(=O)[C@H](CCCCNC(=O)CC[C@H](NC(=O)CCCCCCCCCCCCCCC(=O)O)C(=O)O)NC(=O)CNC(=O)[C@H](CC(=O)O)NC(=O)C(C)(C)NC(=O)[C@@H](N)Cc1c[nH]cn1)C(=O)N[C@@H](CO)C(=O)N[C@@H](CC(=O)O)C(=O)N[C@@H](Cc1ccc(O)cc1)C(=O)N[C@@H](CO)C(=O)N[C@H](C(=O)NC(C)(C)C(=O)N[C@@H](CC(C)C)C(=O)N[C@@H](CC(=O)O)C(=O)N[C@@H](CC(N)=O)C(=O)N[C@@H](CC(C)C)C(=O)N[C@@H](C)C(=O)N[C@@H](C)C(=O)N[C@@H](CCCNC(=N)N)C(=O)N[C@@H](CC(=O)O)C(=O)N[C@@H](Cc1ccccc1)C(=O)N[C@H](C(=O)N[C@@H](CC(N)=O)C(=O)N[C@@H](Cc1c[nH]c2ccccc12)C(=O)N[C@@H](CC(C)C)C(=O)N[C@H](C(=O)N[C@@H](CCC(N)=O)C(=O)N[C@H](C(=O)N[C@@H](CCCCN)C(=O)N[C@H](C(=O)N[C@H](C(=O)N[C@@H](CCCCN)C(=O)O)[C@@H](C)O)[C@@H](C)CC)[C@@H](C)O)[C@@H](C)CC)[C@@H](C)CC)[C@@H](C)O
Efficacy (%) (rat GIPR): 71.7%
pEC50 (rat GIPR): 8

HADGTFISDYSTILDNLAARDFINWLIQTKGKK([AEEA-AEEA-γGlu-C18 diacid]) (also: K33: γGlu-C18-diacid linker 2xAEEA-γGlu) [Compound no. 60]
cAMP assay: Efficacy GIPR [1]: 93%
cAMP assay: Efficacy GLP-2R [2]: 90%
cAMP assay: Efficacy GLP-1R [3]: 105%

HXDGTFISDYSTILDNLAARDFINWLIQTKITK (Aib at 2; K(C10) at 33 (C-terminal residue); C-terminus -OH) [Compound no. 63]
cAMP assay: Efficacy GIPR [1]: 99%
cAMP assay: Efficacy GLP-2R [2]: 105%
cAMP assay: Efficacy GLP-1R [3]: 84%

HXDGTFISDYKTILDNLAARDFINWLIQTKITK (Aib at position 2; K(γGlu-C16) at position 11; C-terminal -OH) [Compound no. 11]
Efficacy (%) (macaque GIPR): 92.5%
pEC50 (macaque GIPR): 9

HXDGTFISDYSTXLDNLAARDFINWLIQTKITK (Aib at 2 and 13; K(C10) at 33 (C-terminal residue); C-terminal amide (-NH2)) [Compound no. 65]
cAMP assay: Efficacy GIPR [1]: 107%
cAMP assay: Efficacy GLP-2R [2]: 77%
cAMP assay: Efficacy GLP-1R [3]: 76%

Palmitoyl-HADGTFISDYSTILDNLAARDFIEWLIQTKITKNDWKHNITQ [Compound no. 50]
cAMP assay: EC50 (nM) GIPR [4]: 0.891 nM
cAMP assay: Efficacy GIPR [4]: 101%
cAMP assay: EC50 (nM) GLP-2R [5]: 10 nM
cAMP assay: Efficacy GLP-2R [5]: 70%
cAMP assay: logEC50 GLP-2R [5]: 8

Palmitoyl-HADGTFISDYSTILDNLAARDFINWLIATKITKNDWKHNITQ [Compound no. 52]
cAMP assay: EC50 (nM) GIPR [4]: 0.251 nM
cAMP assay: Efficacy GIPR [4]: 96%
cAMP assay: EC50 (nM) GLP-2R [5]: 7.9 nM
cAMP assay: Efficacy GLP-2R [5]: 68%
cAMP assay: logEC50 GLP-2R [5]: 8.1

B2: Compound no. 5 (peptide)
peptide: Palmitoyl-H[Aib]DGTFISDYST[Aib]LDNLAARDFINWLIQTKITK-OH
SMILES: CCCCCCCCCCCCCCCC(=O)N[C@@H](Cc1c[nH]cn1)C(=O)NC(C)(C)C(=O)N[C@@H](CC(=O)O)C(=O)NCC(=O)N[C@H](C(=O)N[C@@H](Cc1ccccc1)C(=O)N[C@H](C(=O)N[C@@H](CO)C(=O)N[C@@H](CC(=O)O)C(=O)N[C@@H](Cc1ccc(O)cc1)C(=O)N[C@@H](CO)C(=O)N[C@H](C(=O)NC(C)(C)C(=O)N[C@@H](CC(C)C)C(=O)N[C@@H](CC(=O)O)C(=O)N[C@@H](CC(N)=O)C(=O)N[C@@H](CC(C)C)C(=O)N[C@@H](C)C(=O)N[C@@H](C)C(=O)N[C@@H](CCCNC(=N)N)C(=O)N[C@@H](CC(=O)O)C(=O)N[C@@H](Cc1ccccc1)C(=O)N[C@H](C(=O)N[C@@H](CC(N)=O)C(=O)N[C@@H](Cc1c[nH]c2ccccc12)C(=O)N[C@@H](CC(C)C)C(=O)N[C@H](C(=O)N[C@@H](CCC(N)=O)C(=O)N[C@H](C(=O)N[C@@H](CCCCN)C(=O)N[C@H](C(=O)N[C@H](C(=O)N[C@@H](CCCCN)C(=O)O)[C@@H](C)O)[C@@H](C)CC)[C@@H](C)O)[C@@H](C)CC)[C@@H](C)CC)[C@@H](C)O)[C@@H](C)CC)[C@@H](C)O
Efficacy (%) (macaque GLP-2R): 120%

Palmitoyl-HADGTFISDYST[Aib]LDNLAARDFINWLIQTKITKNDWKHNITQ [Compound no. 53]
cAMP assay: EC50 (nM) GIPR [4]: 0.316 nM
cAMP assay: Efficacy GIPR [4]: 90%
cAMP assay: EC50 (nM) GLP-2R [5]: 4 nM
cAMP assay: Efficacy GLP-2R [5]: 79%
cAMP assay: logEC50 GLP-2R [5]: 8.2

HADGTFISDYST[Aib]LDK([AEEA-AEEA-γGlu-C18 diacid])LAARDFINWLIQTKGKK [Compound no. 62]
cAMP assay: Efficacy GIPR [1]: 86%
cAMP assay: Efficacy GLP-2R [2]: 83%
cAMP assay: Efficacy GLP-1R [3]: 85%

H[Aib]DGTFISDYK([γGlu-Decanoyl])T[Aib]LDNLAARDFINWLIQTKITGNDWKHNITQ-OH [Compound no. 54]
Efficacy (%) (macaque GIPR): 71.8%
pEC50 (macaque GIPR): 7.7
